Results published in paper PMC10786891, “Massively parallel profiling of RNA-targeting CRISPR-Cas13d”.
Changes are numbered by the printed parent chain. Numbers in names are those of the source.

T1: EsCas13d, nuclease-dead (Eubacterium siraeum, UniProt B0MS50, R295A;H300A;R849A;H854A)
T1 sequence: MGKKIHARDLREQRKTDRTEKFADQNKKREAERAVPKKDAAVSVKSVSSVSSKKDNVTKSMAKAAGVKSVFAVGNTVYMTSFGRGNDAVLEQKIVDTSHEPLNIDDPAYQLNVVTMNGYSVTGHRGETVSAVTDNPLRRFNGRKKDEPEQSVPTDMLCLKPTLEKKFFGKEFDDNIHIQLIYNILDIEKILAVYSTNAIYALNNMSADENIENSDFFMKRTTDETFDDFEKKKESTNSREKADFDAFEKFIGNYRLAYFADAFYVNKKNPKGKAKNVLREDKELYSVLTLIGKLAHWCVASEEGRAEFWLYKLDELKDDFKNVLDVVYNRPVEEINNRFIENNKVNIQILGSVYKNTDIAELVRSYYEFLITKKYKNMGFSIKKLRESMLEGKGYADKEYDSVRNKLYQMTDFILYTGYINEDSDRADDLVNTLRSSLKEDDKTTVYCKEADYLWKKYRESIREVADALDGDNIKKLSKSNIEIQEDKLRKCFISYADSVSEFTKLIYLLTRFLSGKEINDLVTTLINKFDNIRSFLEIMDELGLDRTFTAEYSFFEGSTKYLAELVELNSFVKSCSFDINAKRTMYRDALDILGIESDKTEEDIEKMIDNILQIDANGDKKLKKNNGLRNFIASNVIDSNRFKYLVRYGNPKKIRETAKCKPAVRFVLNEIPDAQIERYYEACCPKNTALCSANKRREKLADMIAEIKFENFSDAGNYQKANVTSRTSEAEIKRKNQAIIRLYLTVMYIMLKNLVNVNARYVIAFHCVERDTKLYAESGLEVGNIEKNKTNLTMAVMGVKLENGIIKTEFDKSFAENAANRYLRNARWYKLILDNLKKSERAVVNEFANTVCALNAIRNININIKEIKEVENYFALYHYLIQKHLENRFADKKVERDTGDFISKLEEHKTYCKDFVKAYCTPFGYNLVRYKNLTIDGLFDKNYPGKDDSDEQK

B1: target 2 MT 5'PFS GAA 3'PFS CAA (mixed)
RNA 1: CACCCGUGCAAAAUUGCAGGGGUCUAAAACCUUCUCCAAAUUGUUUCAUCCU
RNA 2: GGGAAUGGAUCCACAUCUACGAAUUCGAAAGGAUGAAACAAUUUGGAGAAGCAAAGAUCGGAAGAGCACACGU
B2: target 2 MT 5'PFS GAA 3'PFS CAG (mixed)
RNA 1: B1 RNA 1
RNA 2: B1 RNA 2 with A54G
B3: target 2 MT 5'PFS CAU 3'PFS AUA (mixed)
RNA 1: B1 RNA 1
RNA 2: B1 RNA 2 with G27C, A29U, C52A, A53U
B4: target 2 MT 5'PFS UGC 3'PFS AGG (mixed)
RNA 1: B1 RNA 1
RNA 2: B1 RNA 2 with G27U, A28G, A29C, C52A, A53G, A54G
B5: target 1 insG 3' of 10,insC 3' of 8 (mixed)
RNA 1: CACCCGUGCAAAAAUGCAGGGGUCUAAAACUGAGCGGAUAACCUCUCUAUGG
RNA 2: GGGAAUGGAUCCACAUCUACGAAUUCGUACCAUAGAGAGGUUGAUCCCGCUCACCGAGAUCGGAAGAGCACACGU
B6: target 2 MT 5'PFS CAU 3'PFS AUC (mixed)
RNA 1: B1 RNA 1
RNA 2: B1 RNA 2 with G27C, A29U, C52A, A53U, A54C
B7: target 2 MT 5'PFS GCG 3'PFS CGA (mixed)
RNA 1: B1 RNA 1
RNA 2: B1 RNA 2 with A28C, A29G, A53G
B8: target 2 MT 5'PFS UGC 3'PFS AGC (mixed)
RNA 1: B1 RNA 1
RNA 2: B1 RNA 2 with G27U, A28G, A29C, C52A, A53G, A54C
B9: target 2 MT 5'PFS CAU 3'PFS AUG (mixed)
RNA 1: B1 RNA 1
RNA 2: B1 RNA 2 with G27C, A29U, C52A, A53U, A54G
B10: target 2 MT 5'PFS UGC 3'PFS AGA (mixed)
RNA 1: B1 RNA 1
RNA 2: B1 RNA 2 with G27U, A28G, A29C, C52A, A53G
B11: target 2 MT 5'PFS CUU 3'PFS CAA (mixed)
RNA 1: B1 RNA 1
RNA 2: B1 RNA 2 with G27C, A28U, A29U
B12: target 2 MT 5'PFS CUU 3'PFS CAC (mixed)
RNA 1: B1 RNA 1
RNA 2: B1 RNA 2 with G27C, A28U, A29U, A54C
B13: target 2 MT 5'PFS ACU 3'PFS UUG (mixed)
RNA 1: B1 RNA 1
RNA 2: B1 RNA 2 with G27A, A28C, A29U, C52U, A53U, A54G
B14: target 2 MT 5'PFS ACU 3'PFS UUA (mixed)
RNA 1: B1 RNA 1
RNA 2: B1 RNA 2 with G27A, A28C, A29U, C52U, A53U
B15: target 2 MT 5'PFS CUU 3'PFS CAG (mixed)
RNA 1: B1 RNA 1
RNA 2: B1 RNA 2 with G27C, A28U, A29U, A54G
B16: target 1 U10C,G12C (mixed)
RNA 1: B5 RNA 1
RNA 2: GGGAAUGGAUCCACAUCUACGAAUUCGUACCAUAGAGAGCUCAUCCGCUCACCGAGAUCGGAAGAGCACACGU
B17: target 2 MT 5'PFS ACU 3'PFS UUC (mixed)
RNA 1: B1 RNA 1
RNA 2: B1 RNA 2 with G27A, A28C, A29U, C52U, A53U, A54C
B18: target 2 MT 5'PFS CAG 3'PFS ACG (mixed)
RNA 1: B1 RNA 1
RNA 2: B1 RNA 2 with G27C, A29G, C52A, A53C, A54G
B19: target 2 MT 5'PFS ACU 3'PFS UUU (mixed)
RNA 1: B1 RNA 1
RNA 2: B1 RNA 2 with G27A, A28C, A29U, C52U, A53U, A54U
B20: target 2 MT 5'PFS CUU 3'PFS CAU (mixed)
RNA 1: B1 RNA 1
RNA 2: B1 RNA 2 with G27C, A28U, A29U, A54U
B21: target 2 MT 5'PFS UUC 3'PFS CAA (mixed)
RNA 1: B1 RNA 1
RNA 2: B1 RNA 2 with G27U, A28U, A29C
B22: target 2 MT 5'PFS CUC 3'PFS UGU (mixed)
RNA 1: B1 RNA 1
RNA 2: B1 RNA 2 with G27C, A28U, A29C, C52U, A53G, A54U
B23: target 2 MT 5'PFS UUC 3'PFS CAC (mixed)
RNA 1: B1 RNA 1
RNA 2: B1 RNA 2 with G27U, A28U, A29C, A54C
B24: target 2 MT 5'PFS AGC 3'PFS UCG (mixed)
RNA 1: B1 RNA 1
RNA 2: B1 RNA 2 with G27A, A28G, A29C, C52U, A53C, A54G
B25: target 2 MT 5'PFS AGC 3'PFS UCA (mixed)
RNA 1: B1 RNA 1
RNA 2: B1 RNA 2 with G27A, A28G, A29C, C52U, A53C
B26: target 2 MT 5'PFS UUC 3'PFS CAG (mixed)
RNA 1: B1 RNA 1
RNA 2: B1 RNA 2 with G27U, A28U, A29C, A54G
B27: target 1 G17C,A18G (mixed)
RNA 1: B5 RNA 1
RNA 2: B16 RNA 2 with A34G, G35C, C40G, C42U
B28: target 2 MT 5'PFS AGC 3'PFS UCC (mixed)
RNA 1: B1 RNA 1
RNA 2: B1 RNA 2 with G27A, A28G, A29C, C52U, A53C, A54C
B29: target 2 MT 5'PFS AGC 3'PFS UCU (mixed)
RNA 1: B1 RNA 1
RNA 2: B1 RNA 2 with G27A, A28G, A29C, C52U, A53C, A54U
B30: target 2 MT 5'PFS CAG 3'PFS UUC (mixed)
RNA 1: B1 RNA 1
RNA 2: B1 RNA 2 with G27C, A29G, C52U, A53U, A54C
B31: target 2 MT 5'PFS CUC 3'PFS UGA (mixed)
RNA 1: B1 RNA 1
RNA 2: B1 RNA 2 with G27C, A28U, A29C, C52U, A53G
B32: target 2 MT 5'PFS CUC 3'PFS UGC (mixed)
RNA 1: B1 RNA 1
RNA 2: B1 RNA 2 with G27C, A28U, A29C, C52U, A53G, A54C
B33: target 2 MT 5'PFS AUA 3'PFS UUA (mixed)
RNA 1: B1 RNA 1
RNA 2: B1 RNA 2 with G27A, A28U, C52U, A53U
B34: target 2 MT 5'PFS AUA 3'PFS UUC (mixed)
RNA 1: B1 RNA 1
RNA 2: B1 RNA 2 with G27A, A28U, C52U, A53U, A54C
B35: target 2 MT 5'PFS UGA 3'PFS AAU (mixed)
RNA 1: B1 RNA 1
RNA 2: B1 RNA 2 with G27U, A28G, C52A, A54U
B36: target 2 MT 5'PFS UCA 3'PFS UAU (mixed)
RNA 1: B1 RNA 1
RNA 2: B1 RNA 2 with G27U, A28C, C52U, A54U
B37: target 2 MT 5'PFS UGA 3'PFS AAG (mixed)
RNA 1: B1 RNA 1
RNA 2: B1 RNA 2 with G27U, A28G, C52A, A54G
B38: target 1 A14U,A16C (mixed)
RNA 1: B5 RNA 1
RNA 2: B16 RNA 2 with A36C, A38U, C40G, C42U

Target: T1, EsCas13d, nuclease-dead
Assay: crRNA (strand 1, pre-loaded); Mg2+; 40 mM Tris-HCl pH 7.5, 150 mM NaCl, 6 mM MgCl2, 1 mM DTT, 0.1% Tween-20, 0.2 mg/ml BSA; 25 C; 10 min per concentration, then washed
Conditions: tags: His6-TwinStrep-SUMO cleaved; N-terminal SNAP kept (SNAP-Surface 488); label: 3' end held by stalled T7 RNA polymerase

Which Kd does the source give for B1 here?
Its Kd is 4.9 ± 0.7 nM.

Which Kd does the source give for B2 here?
Its Kd is 6.6 ± 0.6 nM.

Which Kd does the source give for B3 here?
Its Kd is 3.31 ± 0.27 nM.

For B4, which Kd is on record?
Its Kd is roughly 60 nM.

B5 was tested. Which Kd did it give?
The Kd was 27.8 ± 1.9 nM.

Which Kd does the source give for B6 here?
Its Kd is 3.3 ± 0.5 nM.

Which Kd does the source give for B7 here?
The Kd was 30 ± 12 nM.

How did the Kd turn out when B8 was run?
The Kd was 19.7 ± 1.9 nM.

For B9, which Kd is on record?
The Kd was 4 ± 0.7 nM.

B10 was tested. Which Kd did it give?
The Kd was 26 ± 9 nM.

Which Kd does the source give for B11 here?
Its Kd is 2.9 ± 0.4 nM.

B12 was tested. Which Kd did it give?
Its Kd is 3.41 ± 0.28 nM.

How did the Kd turn out when B13 was run?
The Kd was 7 ± 1 nM.

Which Kd does the source give for B14 here?
The Kd was 9.4 ± 2.2 nM.

B15 was tested. Which Kd did it give?
The Kd was 3.75 ± 0.3 nM.

How did the Kd turn out when B16 was run?
Its Kd is 71 ± 27 nM.

For B17, which Kd is on record?
The Kd was 7.1 ± 2 nM.

For B18, which Kd is on record?
The Kd was 5.8 ± 2.8 nM.

For B19, which Kd is on record?
Its Kd is 6.4 ± 0.8 nM.

B20 was tested. Which Kd did it give?
The Kd was 4.1 ± 0.6 nM.

For B21, which Kd is on record?
Its Kd is 30 ± 6 nM.

How did the Kd turn out when B22 was run?
The Kd was 2.23 ± 0.19 nM.

With B23 as the binder, how does the Kd read?
Its Kd is 13 ± 4 nM.

For B24, which Kd is on record?
The Kd was 14.3 ± 3.2 nM.

For B25, which Kd is on record?
The Kd was 27 ± 10 nM.

B26 was tested. Which Kd did it give?
Its Kd is 6.5 ± 1.4 nM.

B27 was tested. Which Kd did it give?
Its Kd is roughly 90 nM.

Which Kd does the source give for B28 here?
The Kd was 23 ± 4 nM.

With B29 as the binder, how does the Kd read?
Its Kd is 16.1 ± 2.8 nM.

For B30, which Kd is on record?
Its Kd is 19 ± 8 nM.

B31 was tested. Which Kd did it give?
The Kd was 1.66 ± 0.33 nM.

How did the Kd turn out when B32 was run?
The Kd was 1.98 ± 0.26 nM.

For B33, which Kd is on record?
Its Kd is 10.7 ± 1.7 nM.

Which Kd does the source give for B34 here?
The Kd was 13.4 ± 2.4 nM.

How did the Kd turn out when B35 was run?
The Kd was 6.2 ± 0.8 nM.

B36 was tested. Which Kd did it give?
The Kd was 5.1 ± 0.7 nM.

For B37, which Kd is on record?
The Kd was 7.4 ± 0.9 nM.

With B38 as the binder, how does the Kd read?
Its Kd is 100 ± 40 nM.
